Laboratory results: PMC4856209 (Nature methods, 2016)
No end group written: not given here.

B1: pentameric ligand-gated ion channel ELIC (natural protein)
chain: APADNAADARPVDVSVSIFINKIYGVNTLEQTYKVDGYIVAQWTGKPRKTPGDKPLIVENTQIERWINNGLWVPALEFINVVGSPDTGNKRLMLFPDGRVIYNARFLGSFSNDMDFRLFPFDRQQFVLELEPFSYNNQQLRFSDIQVYTENIDNEEIDEWWIRKASTHISDIRYDHLSSVQPNQNEFSRITVRIDAVRNPSYYLWSFILPLGLIIAASWSVFWLESFSERLQTSFTLMLTVVAYAFYTSNILPRLPYTTVIDQMIIAGYGSIFAAILLIIFAHHRQAMGVEDDLLIQRCRLAFPLGFLAIGCVLVIRGITL
B2: outer membrane porin OmpF (natural protein)
chain: AEIYNKDGNKVDLYGKAVGLHYFSKGNGENSYGGNGDMTYARLGFKGETQINSDLTGYGQWEYNFQGNNSEGADAQTGNKTRLAFAGLKYADVGSFDYGRNYGVVYDALGYTDMLPEFGGDTAYSDDFFVGRVGGVATYRNSNFFGLVDGLNFAVQYLGKNERDTARRSNGDGVGGSISYEYEGFGIVGAYGAADRTNLQEAQPLGNGKKAEQWATGLKYDANNIYLAANYGETRNATPITNKFTNTSGFANKTQDVLLVAQYQFDFGLRPSIAYTKSKAKDVEGIGDVDLVNYFEVGATYYFNKNMSTYVDYIINQIDSDNKLGVGSDDTVAVGIVYQF
B3: OBS1 peptide (peptide mimic of colicin OmpF Binding Sequence 1) (peptide)
peptide: SGGDGRGHNTGAHSTSG-NH2

Experiments:
Assay in all cases: native MS
[1] = molecular target: Vibrio sp. N418 semiSWEET (Vibrio sp. N418)
native MS = molecular target: the molecule itself
[2] = molecular target: B2

## Vibrio sp. N418 semiSWEET (natural protein)
[1]
  stoichiometry N: 2

## B1
Native MS
  stoichiometry N: 5

## B2
Native MS
  stoichiometry N: 3

## B3
[2]
  Kd: 690 nM
  stoichiometry N: 3
